Measured values as given in patent publication US20260242735A1 (UNIVERSIT T BASEL, published 2026).
One block for each binder: values may come before it.

Assays:
Experiment in all cases: flow cytometry, transfected cells
human CD33 F21L = human CD33 F21L (human, UniProt P20138 18-364)
human CD33 N20K = human CD33 N20K (human, UniProt P20138 18-364)
human CD33 N20D = human CD33 N20D (human, UniProt P20138 18-364)
human CD33 P19K = human CD33 P19K (human, UniProt P20138 18-364)
human CD33 N20G = human CD33 N20G (human, UniProt P20138 18-364)
Chain of human CD33 N20G (P20138 18-364 N20G limits assumed): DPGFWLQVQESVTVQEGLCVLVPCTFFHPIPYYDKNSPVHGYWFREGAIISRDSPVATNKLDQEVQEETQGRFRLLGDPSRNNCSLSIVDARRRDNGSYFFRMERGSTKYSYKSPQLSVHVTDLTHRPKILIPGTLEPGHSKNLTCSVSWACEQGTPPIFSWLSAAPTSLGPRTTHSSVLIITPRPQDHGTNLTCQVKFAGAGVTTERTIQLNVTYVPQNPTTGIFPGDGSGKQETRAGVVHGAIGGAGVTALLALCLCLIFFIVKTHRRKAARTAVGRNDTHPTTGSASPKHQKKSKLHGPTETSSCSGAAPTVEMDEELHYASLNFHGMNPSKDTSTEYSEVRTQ

human CD33 P46F = human CD33 P46F (human, UniProt P20138 18-364)
Chain of human CD33 P46F (P20138 18-364 P46F limits assumed): as the sequence (P20138 18-364 N20G limits assumed) above, with G3N, P29F counted along it

human CD33 F21V = human CD33 F21V (human, UniProt P20138 18-364)
Chain of human CD33 F21V (P20138 18-364 F21V limits assumed): as the sequence (P20138 18-364 N20G limits assumed) above, with G3N, F4V counted along it

human CD33 P46Y = human CD33 P46Y (human, UniProt P20138 18-364)
Chain of human CD33 P46Y (P20138 18-364 P46Y limits assumed): as the sequence (P20138 18-364 N20G limits assumed) above, with G3N, P29Y counted along it

human CD33 N20T = human CD33 N20T (human, UniProt P20138 18-364)
Chain of human CD33 N20T (P20138 18-364 N20T limits assumed): as the sequence (P20138 18-364 N20G limits assumed) above, with G3T counted along it

human CD33 N20P = human CD33 N20P (human, UniProt P20138 18-364)
Chain of human CD33 N20P (P20138 18-364 N20P limits assumed): as the sequence (P20138 18-364 N20G limits assumed) above, with G3P counted along it

human CD33 F21S = human CD33 F21S (human, UniProt P20138 18-364)
Chain of human CD33 F21S (P20138 18-364 F21S limits assumed): as the sequence (P20138 18-364 N20G limits assumed) above, with G3N, F4S counted along it

human CD33 N20E = human CD33 N20E (human, UniProt P20138 18-364)
Chain of human CD33 N20E (P20138 18-364 N20E limits assumed): as the sequence (P20138 18-364 N20G limits assumed) above, with G3E counted along it

human CD33 F21I = human CD33 F21I (human, UniProt P20138 18-364)
Chain of human CD33 F21I (P20138 18-364 F21I limits assumed): as the sequence (P20138 18-364 N20G limits assumed) above, with G3N, F4I counted along it

human CD33 W22N = human CD33 W22N (human, UniProt P20138 18-364)
Chain of human CD33 W22N (P20138 18-364 W22N limits assumed): as the sequence (P20138 18-364 N20G limits assumed) above, with G3N, W5N counted along it

human CD33 W22L = human CD33 W22L (human, UniProt P20138 18-364)
Chain of human CD33 W22L (P20138 18-364 W22L limits assumed): as the sequence (P20138 18-364 N20G limits assumed) above, with G3N, W5L counted along it

human CD33 W22G = human CD33 W22G (human, UniProt P20138 18-364)
Chain of human CD33 W22G (P20138 18-364 W22G limits assumed): as the sequence (P20138 18-364 N20G limits assumed) above, with G3N, W5G counted along it

human CD33 W22S = human CD33 W22S (human, UniProt P20138 18-364)
Chain of human CD33 W22S (P20138 18-364 W22S limits assumed): as the sequence (P20138 18-364 N20G limits assumed) above, with G3N, W5S counted along it

human CD33 I47P = human CD33 I47P (human, UniProt P20138 18-364)
Chain of human CD33 I47P (P20138 18-364 I47P limits assumed): as the sequence (P20138 18-364 N20G limits assumed) above, with G3N, I30P counted along it

Chain of human CD33 N20K (P20138 18-364 N20K limits assumed): as the sequence (P20138 18-364 N20G limits assumed) above, with G3K counted along it
Chain of human CD33 F21L (P20138 18-364 F21L limits assumed): as the sequence (P20138 18-364 N20G limits assumed) above, with G3N, F4L counted along it
Chain of human CD33 P19K (P20138 18-364 P19K limits assumed): as the sequence (P20138 18-364 N20G limits assumed) above, with P2K, G3N counted along it
Chain of human CD33 N20D (P20138 18-364 N20D limits assumed): as the sequence (P20138 18-364 N20G limits assumed) above, with G3D counted along it

- binding result (human CD33 F21L): no binding (tested: below 20%)
- binding result (human CD33 N20K): no binding (tested: below 20%)
- binding result (human CD33 N20D): no binding (tested: below 20%)
- binding result (human CD33 P19K): no binding (tested: below 20%)
- binding result (human CD33 N20G): no binding (tested: below 20%)
- binding result (human CD33 P46F): no binding (tested: below 20%)
- binding result (human CD33 F21V): no binding (tested: below 20%)
- binding result (human CD33 P46Y): no binding (tested: below 20%)
- binding result (human CD33 N20T): no binding (tested: below 20%)
- binding result (human CD33 N20P): no binding (tested: below 20%)
- binding result (human CD33 F21S): no binding (tested: below 20%)
- binding result (human CD33 N20E): no binding (tested: below 20%)
- binding result (human CD33 F21I): no binding (tested: below 20%)
B1: Refmab #1 (antibody, human IgG1, V domains shown)
VH: EVQLVQSGAEVKKPGSSVKVSCKASGYTITDSNIHWVRQAPGQSLEWIGYIYPYNGGTDYNQKFKNRATLTVDNPTNTAYMELSSLRSEDTAFYYCVNGNPWLAYWGQGTLVTVSS
VL: DIQLTQSPSTLSASVGDRVTITCRASESLDNYGIRFLTWFQQKPGKAPKLLMYAASNQGSGVPSRFSGSGSGTEFTLTISSLQPDDFATYYCQQTKEVPWSFGQGTKVEVK
notes: also called hP67.6; Absolute Antibody Cat. No. Ab00283-10.0

- binding result (human CD33 W22N): no binding (tested: below 20%)
- binding result (human CD33 W22L): no binding (tested: below 20%)
- binding result (human CD33 W22G): no binding (tested: below 20%)
- binding result (human CD33 W22S): no binding (tested: below 20%)
B2: Refmab #6 (antibody, human IgG1, V domains shown)
VH: QVQLQQPGAEVVKPGASVKMSCKASGYTFTSYYIHWIKQTPGQGLEWVGVIYPGNDDISYNQKFQGKATLTADKSSTTAYMQLSSLTSEDSAVYYCAREVRLRYFDVWGQGTTVTVSS
VL: EIVLTQSPGSLAVSPGERVTMSCKSSQSVFFSSSQKNYLAWYQQIPGQSPRLLIYWASTRESGVPDRFTGSGSGTDFTLTISSVQPEDLAIYYCHQYLSSRTFGQGTKLEIK

- binding result (human CD33 F21L): no binding (tested: below 20%)
- binding result (human CD33 N20K): no binding (tested: below 20%)
- binding result (human CD33 N20D): no binding (tested: below 20%)
- binding result (human CD33 W22N): no binding (tested: below 20%)
- binding result (human CD33 P19K): no binding (tested: below 20%)
- binding result (human CD33 I47P): no binding (tested: below 20%)
- binding result (human CD33 W22L): no binding (tested: below 20%)
- binding result (human CD33 N20G): no binding (tested: below 20%)
- binding result (human CD33 P46F): no binding (tested: below 20%)
- binding result (human CD33 F21V): no binding (tested: below 20%)
- binding result (human CD33 P46Y): no binding (tested: below 20%)
- binding result (human CD33 N20T): no binding (tested: below 20%)
- binding result (human CD33 N20P): no binding (tested: below 20%)
- binding result (human CD33 W22G): no binding (tested: below 20%)
- binding result (human CD33 W22S): no binding (tested: below 20%)
- binding result (human CD33 F21S): no binding (tested: below 20%)
- binding result (human CD33 N20E): no binding (tested: below 20%)
- binding result (human CD33 F21I): no binding (tested: below 20%)
B3: Refmab #3 (antibody, human IgG1, V domains shown)
VH: QVQLVQSGAEVKKPGSSVKVSCKASGYTFTDYNMHWVRQAPGQGLEWIGYIYPYNGGTGYNQKFKSKATITADESTNTAYMELSSLRSEDTAVYYCARGRPAMDYWGQGTLVTVSS
VL: DIQMTQSPSSLSASVGDRVTITCRASESVDNYGISFMNWFQQKPGKAPKLLIYAASNQGSGVPSRFSGSGSGTDFTLTISSLQPDDFATYYCQQSKEVPWTFGQGTKVEIK
